According to patent US20230212587A1, “Mutant Hydroxyphenylpyruvate Dioxygenase Polypeptide, Encoding Gene Thereof and Use Therefor” (Beijing Dabeinong Biotechnology Co., Ltd., priority 2019, published 2023):

System: Arabidopsis thaliana T1 plants
Assay: Topramezone tolerance of transgenic Arabidopsis thaliana T1 plants (pesticide damage grade by bleached leaf area, score, resistance evaluation)
Type: in vivo
Conditions: HPPDs from different species, 7 DAT; for Classification and statistics of pesticide damage grade Grade 0 / Classification and statistics of pesticide damage grade Grade 1 / Classification and statistics of pesticide damage grade Grade 2 / Classification and statistics of pesticide damage grade Grade 3: number of plants (of 16) in this grade; for Scores: score for pesticide damage 0-100
In short: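 Herbicide tolerance was judged per plant on a bleaching scale (grade 0 no bleaching to grade 3 fully bleached) 7 DAT. Topramezone doses were 0, 25, 50 and 100 g ai/ha on 18-day-old T1 and wild-type plants.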

Molecule	Classification and statistics of pesticide damage grade Grade 0 (topramezone 25 g ai/ha (1x))	Classification and statistics of pesticide damage grade Grade 1 (topramezone 25 g ai/ha (1x))	Classification and statistics of pesticide damage grade Grade 2 (topramezone 25 g ai/ha (1x))	Classification and statistics of pesticide damage grade Grade 3 (topramezone 25 g ai/ha (1x))	Classification and statistics of pesticide damage grade Grade 0 (topramezone 100 g ai/ha (4x))	Classification and statistics of pesticide damage grade Grade 1 (topramezone 100 g ai/ha (4x))	Classification and statistics of pesticide damage grade Grade 2 (topramezone 100 g ai/ha (4x))	Classification and statistics of pesticide damage grade Grade 3 (topramezone 100 g ai/ha (4x))	Scores (topramezone 25 g ai/ha (1x))	Scores (topramezone 100 g ai/ha (4x))	Resistance evaluation (topramezone 25 g ai/ha (1x))	Resistance evaluation (topramezone 100 g ai/ha (4x))
S1HPPD-02: native Solanum lycopersicum HPPD, SEQ ID NO: 129 (protein, SlHPPD Amino Acid Sequence (Solanum lycopersicum)) MGKQAAAAADDQQLPGDIEDKFKLVGFNHFVRTNPRSDFFTVKRFHHIEFWCGDATNTARRFSWGLGLPIAAISDLSTGNSVHASYLLRSSSSSQLQFLFTAPYSSAISTSSSASIPTFSVSSHRSFTATHGLGVRAIALEVENSRLAFSTCVAHGAKPVSEPVILNDEVVIAEVHLYGDVVLRFVSFLKDSNCFVFLPGFESVEGAQLDYGIRRLDHAVGNVPELGPVVEYIKSFTGFHEFAEFTAEDVGTAESGLNSVVLANNDETVLFPLNEPVYGTKRKSQIQTYLEHNEGAGVQHLALVTEDIFRTLREMRKRSGIGGFEFMPSPPPTYYKNLKTRAGDILSDEQIQECEELGILVDRDDQGTLLQIFTKPVGDRPTIFLEIIQRIGCMLKNEEGELYQKGGCGGFGKGNFSELFKSIEEYEKTLEAKQNTQVAIA	0	0	0	16	0	0	0	16	100	100	non-resistant (non-resistant plants (scores 68-100))	non-resistant (non-resistant plants (scores 68-100))
S1HPPDm-F372A-02: Solanum lycopersicum HPPD mutant F372A, SEQ ID NO: 132 (protein, SlHPPDm-F372A Amino Acid Sequence) MGKQAAAAADDQQLPGDIEDKFKLVGFNHFVRTNPRSDFFTVKRFHHIEFWCGDATNTARRFSWGLGLPIAAISDLSTGNSVHASYLLRSSSSSQLQFLFTAPYSSAISTSSSASIPTFSVSSHRSFTATHGLGVRAIALEVENSRLAFSTCVAHGAKPVSEPVILNDEVVIAEVHLYGDVVLRFVSFLKDSNCFVFLPGFESVEGAQLDYGIRRLDHAVGNVPELGPVVEYIKSFTGFHEFAEFTAEDVGTAESGLNSVVLANNDETVLFPLNEPVYGTKRKSQIQTYLEHNEGAGVQHLALVTEDIFRTLREMRKRSGIGGFEFMPSPPPTYYKNLKTRAGDILSDEQIQECEELGILVDRDDQGTLLQIATKPVGDRPTIFLEIIQRIGCMLKNEEGELYQKGGCGGFGKGNFSELFKSIEEYEKTLEAKQNTQVAIA	1	1	14	0	0	1	4	11	60	88	poorly resistant (poorly resistant plants (scores 34-67))	non-resistant (non-resistant plants (scores 68-100))
AhHPPD-02: native Arachis hypogaea HPPD, SEQ ID NO: 135 (protein, listed as Arachis hypogaea, AhHPPD Amino Acid Sequence) MATAYTYAHAVTYCNSQHNPPIIPILSTNQHPPRVTLPSSIPHFISTITTFNLKHFPSHSLHTVMVTQTQQNAPSSSPELGFKLVGFKNFVRTNPKSDRFKVIRFHHVEFWCTDATNTASRFSWGLGMPIVAKSDLSTGNAVHASYLLRSGDLNFLFSAPYSASIAGDGASASFPSFSASDCHSFAAKHGLAVRAVAIEVEDASAAFSASVANGAKPVSPAVLLDNSVGFAEVHLYGDVVLRYISYSAPTRESNLNPTLRFLPGFEAVEADSSFPELDYGIRRLDHAVGNVPELAPAVNYLKKFTGFHEFAEFTAEDVGTSESGLNSVVLASNDEMVLLPLNEPVYGTKRKSQIETYLEHNEGAGLQHLALVSEDIFRTLREMRKRSTIGGFQFMPSPPPTYYRNLKKRAGDVLSDEQIKECEELGILVDRDDQGTLLQIFTKPVGDRPTIFIEIIQRIGCMLKDEEGKVYQKGGCGGFGKGNFSELFKSIEEYEKTLESRRTA	0	0	0	16	0	0	0	16	100	100	non-resistant (non-resistant plants (scores 68-100))	non-resistant (non-resistant plants (scores 68-100))
AhHPPDm-F372A-02: Arachis hypogaea HPPD mutant F372A, SEQ ID NO: 138 (protein, AhHPPDm-F372A Amino Acid Sequence) MATAYTYAHAVTYCNSQHNPPIIPILSTNQHPPRVTLPSSIPHFISTITTFNLKHFPSHSLHTVMVTQTQQNAPSSSPELGFKLVGFKNFVRTNPKSDRFKVIRFHHVEFWCTDATNTASRFSWGLGMPIVAKSDLSTGNAVHASYLLRSGDLNFLFSAPYSASIAGDGASASFPSFSASDCHSFAAKHGLAVRAVAIEVEDASAAFSASVANGAKPVSPAVLLDNSVGFAEVHLYGDVVLRYISYSAPTRESNLNPTLRFLPGFEAVEADSSFPELDYGIRRLDHAVGNVPELAPAVNYLKKFTGFHEFAEFTAEDVGTSESGLNSVVLASNDEMVLLPLNEPVYGTKRKSQIETYLEHNEGAGLQHLALVSEDIFRTLREMRKRSTIGGFQFMPSPPPTYYRNLKKRAGDVLSDEQIKECEELGILVDRDDQGTLLQIATKPVGDRPTIFIEIIQRIGCMLKDEEGKVYQKGGCGGFGKGNFSELFKSIEEYEKTLESRRTA	2	12	2	0	0	0	10	6	33	79	moderately resistant (moderately resistant plants (scores 16-33))	non-resistant (non-resistant plants (scores 68-100))
StHPPDm-F372A-02: Solanum tuberosum HPPD mutant F372A, SEQ ID NO: 126 (protein, StHPPDm-F372A Amino Acid Sequence) MGKQAATATATATATADDQQLPADIEDKYKLVGFNNFVRTNPRSDLFNVKRFHHIEFWCGDATNTARRFSWGLGLPIAAKSDLSTGNSVHASYLLRSSSSQLQFLFTAPYSPAISTPSSSSIPTFSVSSHRSFTETHGLGVRAIALEVENSRLAFSTCVSHGAKPVSEPVILNDEVVISEVHLYGDVVLRFVSFLKDSNRFVFLPGFELVEGAQLDYGIRRLDHAVGNVPQLGPVVEYIKSFTGFHEFAEFTAEDVGTAESGLNSVVLANNDETVLFPLNEPVYGTKRKSQIQTYLEHNEGAGVQHLALVTEDIFRTLREMRKRSGIGGFEFMPSPPPTYYKNLKSRAGDILSDEQIKECEELGILVDRDDQGTLLQIATKPVGDRPTIFLEIIQRIGCMLQNAEGELYQKGGCGGFGKGNFSELFKSIEEYEKTLEAKQNTQVAIA	4	12	0	0	0	1	4	11	25	88	moderately resistant (moderately resistant plants (scores 16-33))	non-resistant (non-resistant plants (scores 68-100))
